Key:
Type in all cases: cell-based
[1] = test system: Fusarium oxysporum f. sp. vasinfectum (Fov); experiment: Growth of Fov with NaD1 and proteinase inhibitors (Example 6); details: 40 h, FIG. 6
Experimental: The inhibitory effects of defensin (NaD1) and proteinase inhibitors on the growth of Fusarium oxysporum f. sp. vasinfectum (Fov) (Australian isolate VCG01111 isolated from cotton and provided by Farming Systems Institute, DPI, Queensland, Australia) were measured essentially as described by Broekaert et al, supra 1990. Spores were isolated from sporulating cultures growing in ½ strength potato dextrose broth (PDB). The Fov culture was grown in ½ PDB for 1-2 weeks at room temperature, before spores were separated from hyphal matter by filtration through sterile tissue paper. The concentration of spores in the filtrate was measured using a hemocytometer. NaD1 and the proteinase inhibitors were prepared as described in Example 4. The conditions used for the fungal growth assay were the same as those described in Example 4. After 40h at 25° C. fungal growth was assessed by measuring optical density at 595 nm (A595).

[2] = test system: Fusarium graminearum; details: F. graminearum
[3] = test system: Colletotrichum graminicola; details: C. graminicola, 40 h, FIG. 7
[4] = test system: Fusarium graminearum; details: concentrations up to 18.5 uM in the absence of NaD1

B1: NaCys2: cystatin from Nicotiana alata, bacterially expressed (SEQ ID NO:4) (protein)
chain: MANLGGIREAGGSENSLEINDLARFAVDGHNKKQNALLEFRKVVNVKEQVVAGTMYYITLEATEGGKKKAYEAKVWVKPWQNFKQLEDFKLIGDAASA
modifications: Nicotiana alata (NaCys2)
B1 was tested, and the “synergy with NaD1 on growth inhibition” value [1] was “Less, but significant synergy”, the “synergy with the petunia defensin PhD1A on growth inhibition” value [2] was “synergistic effect” and the “synergy with the tomato defensin Tomdef2 on growth inhibition” value [2] was “synergistic effect”. For the same molecule, the “synergy with NaD1 on growth inhibition” value [3] was “synergistic effect” and the “effect on hyphal growth” value [4] was “no effect on hyphal growth”.

Source: patent US9889184B2 (priority 2008, dated 2018)
